T1: recombinant purified cyno IL-12 p70 (cynomolgus monkey)
T1 chain 1: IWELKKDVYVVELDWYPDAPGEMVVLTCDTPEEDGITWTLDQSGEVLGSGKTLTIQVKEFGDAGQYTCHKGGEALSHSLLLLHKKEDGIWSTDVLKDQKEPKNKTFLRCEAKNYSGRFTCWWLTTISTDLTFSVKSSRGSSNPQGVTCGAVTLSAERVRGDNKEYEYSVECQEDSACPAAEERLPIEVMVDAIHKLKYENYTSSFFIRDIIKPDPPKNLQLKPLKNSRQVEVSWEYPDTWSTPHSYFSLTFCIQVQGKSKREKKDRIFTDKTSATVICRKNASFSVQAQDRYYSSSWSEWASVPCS
T1 chain 2: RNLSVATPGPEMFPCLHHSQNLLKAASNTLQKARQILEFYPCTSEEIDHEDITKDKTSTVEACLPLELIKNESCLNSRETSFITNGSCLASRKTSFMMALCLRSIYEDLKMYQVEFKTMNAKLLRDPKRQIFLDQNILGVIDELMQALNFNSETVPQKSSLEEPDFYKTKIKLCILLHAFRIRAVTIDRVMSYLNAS

T2: recombinant purified human IL-12 p70 (human, UniProt P29459 23-219)
T2 sequence 1: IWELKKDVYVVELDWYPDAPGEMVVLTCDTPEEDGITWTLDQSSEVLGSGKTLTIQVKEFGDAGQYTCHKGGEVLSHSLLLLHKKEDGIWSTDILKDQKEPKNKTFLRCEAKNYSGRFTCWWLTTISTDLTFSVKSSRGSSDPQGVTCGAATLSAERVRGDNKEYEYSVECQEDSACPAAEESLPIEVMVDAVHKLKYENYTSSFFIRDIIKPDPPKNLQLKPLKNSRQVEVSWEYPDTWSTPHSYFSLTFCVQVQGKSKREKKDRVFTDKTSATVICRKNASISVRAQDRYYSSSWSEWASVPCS
T2 sequence 2: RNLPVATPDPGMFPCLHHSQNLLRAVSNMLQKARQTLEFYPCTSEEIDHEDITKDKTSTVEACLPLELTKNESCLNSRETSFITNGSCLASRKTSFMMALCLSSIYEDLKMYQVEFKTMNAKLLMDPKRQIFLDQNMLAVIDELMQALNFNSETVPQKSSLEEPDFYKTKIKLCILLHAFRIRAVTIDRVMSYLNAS


Key:
[1] = target: T1, recombinant purified cyno IL-12 p70; experiment: cell-based or functional assay
[2] = target: T2, recombinant purified human IL-12 p70; experiment: cell-based or functional assay
[3] = target: T2, recombinant purified human IL-12 p70; experiment: SPR (Biacore) as in Example 1.1.B, human IL-12p70
Description: Approximately 5000 RU of goat anti-mouse IgG, (Fcγ), fragment specific polyclonal antibody (Pierce Biotechnology Inc, Rockford, Ill.) diluted in 10 mM sodium acetate (pH 4.5) was directly immobilized across a CM5 research grade biosensor chip using a standard amine coupling kit according to manufacturer's instructions and procedures at 25 μg/ml. Unreacted moieties on the biosensor surface were blocked with ethanolamine. Modified carboxymethyl dextran surface in flowcell 2 and 4 was used as a reaction surface. Unmodified carboxymethyl dextran without goat anti-mouse IgG in flow cell 1 and 3 was used as the reference surface. For kinetic analysis, rate equations derived from the 1:1 Langmuir binding model were fitted simultaneously to association and dissociation phases of all eight injections (using global fit analysis) with the use of Biaevaluation 4.0.1 software. Purified antibodies were diluted in HEPES-buffered saline for capture across goat anti-mouse IgG specific reaction surfaces. Mouse antibodies to be captured as a ligand (25 μg/ml) were injected over reaction matrices at a flow rate of 5 μl/min. The association and dissociation rate constants, kₒₙ (unit M⁻¹ s⁻¹) and koff (unit s⁻¹) were determined under a continuous flow rate of 25 μl/min. Rate constants were derived by making kinetic binding measurements at ten different antigen concentrations ranging from 10-200 nM. The equilibrium dissociation constant (unit M) of the reaction between mouse antibodies and recombinant purified human IL-12 p70 or recombinant purified human IL-12 p40 was then calculated from the kinetic rate constants by the following formula: KD=koff/kₒₙ. Binding is recorded as a function of time and kinetic rate constants are calculated. In this assay, on-rates as fast as 10⁶M⁻¹ s⁻¹ and off-rates as slow as 10⁻⁶ can be measured. […]

Row | Binder | Av. IC50 (nM) Cyno IL-12, PHA blast assay [1] [nM] | Av. IC50 (nM) Hu IL-12, PHA blast assay [2] [nM] | Kd [3] [nM] | koff [3] [s⁻¹] | kon [3] [M⁻¹ s⁻¹]
1 | CDR grafted anti IL-12p40 antibody 1A6.2 (antibody, human IgG1, kappa, L234A L235A, V domains shown, Full-length CDR-grafted antibody, COS cells) VH: EVTLKESGPVLVKPTETLTLTCTVSGFSLSTSGMGVSWIRQPPGKALEWLAHIWWDGDNYYNPSLKSRLTISKDTSKSQVVLTMTNMDPVDTATYYCARRTRVNYAMDYWGQGTTVTVSS VL: EIVMTQSPATLSVSPGERATLSCKASQSVSNDVAWYQQKPGQAPRLLIYYASNRYTGIPARFSGSGSGTEFTLTISSLQSEDFAVYYCQQDYNSPWTFGGGTKVEIKR | 0.84 | 1.1 | 0.54 | 5.4e-05 | 100000
2 | CDR grafted anti IL-12p40 antibody 1A6.5 (antibody, human IgG1, kappa, L234A L235A, V domains shown, Full-length CDR-grafted antibody, COS cells) VH: EVTLRESGPALVKPTQTLTLTCTFSGFSLSTSGMGVSWIRQPPGKALEWLAHIWWDGDNYYNPSLKSRLTISKDTSKNQVVLTMTNMDPVDTATYYCARRTRVNYAMDYWGQGTTVTVSS VL: EIVMTQSPATLSVSPGERATLSCKASQSVSNDVAWYQQKPGQAPRLLIYYASNRYTGIPARFSGSGSGTEFTLTISSLQSEDFAVYYCQQDYNSPWTFGGGTKVEIKR | 1.1 | 1.9 | 0.43 | 5.6e-05 | 130000
3 | CDR grafted anti IL-12p40 antibody 1D4.1 (antibody, human IgG1, kappa, L234A L235A, V domains shown, Full-length CDR-grafted antibody, COS cells) VH: EVTLRESGPALVKPTQTLTLTCTFSGFSLSKSVMGVSWIRQPPGKALEWLAHIYWDDDKYYNPSLKSRLTISKDTSKNQVVLTMTNMDPVDTATYYCARRGIRSAMDYWGQGTTVTVSS VL: DIVMTQSPDSLAVSLGERATINCKASQSVSNDVAWYQQKPGQPPKLLIYYASNRYTGVPDRFSGSGSGTDFTLTISSLQAEDVAVYYCQQDYNSPWTFGGGTKVEIKR | 1.5 | 0.47 | 0.12 | 2.9e-05 | 260000
4 | CDR grafted anti IL-12p40 antibody 1D4.2 (antibody, human IgG1, kappa, L234A L235A, V domains shown, Full-length CDR-grafted antibody, COS cells) VH: EVTLKESGPVLVKPTETLTLTCTVSGFSLSKSVMGVSWIRQPPGKALEWLAHIYWDDDKYYNPSLKSRLTISKDTSKSQVVLTMTNMDPVDTATYYCARRGIRSAMDYWGQGTTVTVSS VL: EIVMTQSPATLSVSPGERATLSCKASQSVSNDVAWYQQKPGQAPRLLIYYASNRYTGIPARFSGSGSGTEFTLTISSLQSEDFAVYYCQQDYNSPWTFGGGTKVEIKR | 3 | 3 | 1.7 | 0.00026 | 160000
5 | CDR grafted anti IL-12p40 antibody 1A6.1 (antibody, human IgG1, kappa, L234A L235A, V domains shown, Full-length CDR-grafted antibody, COS cells) VH: EVTLRESGPALVKPTQTLTLTCTFSGFSLSTSGMGVSWIRQPPGKALEWLAHIWWDGDNYYNPSLKSRLTISKDTSKNQVVLTMTNMDPVDTATYYCARRTRVNYAMDYWGQGTTVTVSS VL: DIVMTQSPDSLAVSLGERATINCKASQSVSNDVAWYQQKPGQPPKLLIYYASNRYTGVPDRFSGSGSGTDFTLTISSLQAEDVAVYYCQQDYNSPWTFGGGTKVEIKR | 0.57 | 0.48 | 0.27 | 2.9e-05 | 110000
6 | CDR grafted anti IL-12p40 antibody 1A6.6 (antibody, human IgG1, kappa, L234A L235A, V domains shown, Full-length CDR-grafted antibody, COS cells) VH: EVTLKESGPVLVKPTETLTLTCTVSGFSLSTSGMGVSWIRQPPGKALEWLAHIWWDGDNYYNPSLKSRLTISKDTSKSQVVLTMTNMDPVDTATYYCARRTRVNYAMDYWGQGTTVTVSS VL: DIVMTQSPDSLAVSLGERATINCKASQSVSNDVAWYQQKPGQPPKLLIYYASNRYTGVPDRFSGSGSGTDFTLTISSLQAEDVAVYYCQQDYNSPWTFGGGTKVEIKR | 0.14 | 0.59 |  |  | 

Next, values leading:

Row | Av. IC50 (nM) Cyno IL-12, PHA blast assay [1] [nM] | Av. IC50 (nM) Hu IL-12, PHA blast assay [2] [nM] | Kd [3] [nM] | koff [3] [s⁻¹] | kon [3] [M⁻¹ s⁻¹] | Binder
7 | 0.7 | 0.24 | 0.23 | 0.00014 | 610000 | CDR grafted anti IL-12p40 antibody 3G7.2 (antibody, human IgG1, kappa, L234A L235A, V domains shown, Full-length CDR-grafted antibody, COS cells) VH: EVQLVQSGAEVKKPGASVKVSCKASGYTFTDYWIEWVRQAPGQGLEWMGGFSHGSGSTNYNEKFKGRVTMTTDTSTSTAYMELRSLRSDDTAVYYCARRRFRGMDYWGQGTTVTVSS VL: EIVMTQSPATLSVSPGERATLSCKASQSVSNDVAWYQQKPGQAPRLLIYYASNRYTGIPARFSGSGSGTEFTLTISSLQSEDFAVYYCQQDYSSPWSFGGGTKVEIKR
8 | 4.6 | 2.8 | 1.7 | 0.00087 | 520000 | CDR grafted anti IL-12p40 antibody 8E1.1 (antibody, human IgG1, kappa, L234A L235A, V domains shown, Full-length CDR-grafted antibody, COS cells) VH: EVQLVESGGGLVQPGGSLRLSCAASGFTFSDYGMVWVRQAPGKGLEWVGSISSGSSNIYYADTVKGRFTISRDDSKNSLYLQMNSLKTEDTAVYYCARNPYWGQGTTVTVSS VL: DIQMTQSPSSLSASVGDRVTITCKASQNVGTNVAWYQQKPEKAPKSLIYSASHRYSGVPSRFSGSGSGTDFTLTISSLQPEDFATYYCQQYNSYPLTFGGGTKVEIKR
9 | 1.2 | 0.56 | 0.22 | 9.1e-05 | 420000 | CDR grafted anti IL-12p40 antibody 3G7.1 (antibody, human IgG1, kappa, L234A L235A, V domains shown, Full-length CDR-grafted antibody, COS cells) VH: EVQLVQSGAEVKKPGSSVKVSCKASGGTFSDYWIEWVRQAPGQGLEWMGGFSHGSGSTNYNEKFKGRVTITADKSTSTAYMELSSLRSEDTAVYYCARRRFRGMDYWGQGTTVTVSS VL: DIVMTQSPDSLAVSLGERATINCKASQSVSNDVAWYQQKPGQPPKLLIYYASNRYTGVPDRFSGSGSGTDFTLTISSLQAEDVAVYYCQQDYSSPWSFGGGTKVEIKR
10 | 1.6 | 0.83 | 0.25 | 5.3e-05 | 210000 | CDR grafted anti IL-12p40 antibody 1D4.3 (antibody, human IgG1, kappa, L234A L235A, V domains shown, Full-length CDR-grafted antibody, COS cells) VH: EVTLRESGPALVKPTQTLTLTCTFSGFSLSKSVMGVSWIRQPPGKALEWLAHIYWDDDKYYNPSLKSRLTISKDTSKNQVVLTMTNMDPVDTATYYCARRGIRSAMDYWGQGTTVTVSS VL: EIVMTQSPATLSVSPGERATLSCKASQSVSNDVAWYQQKPGQAPRLLIYYASNRYTGIPARFSGSGSGTEFTLTISSLQSEDFAVYYCQQDYNSPWTFGGGTKVEIKR

— patent US20140178332A1 (published 2014)
